The term Kd denotes the free concentration of one partner at which half of the binding sites on the other are occupied at equilibrium, for simple one-to-one binding. The low end stands for higher affinity, the high end for lower affinity. One may read the koff as the first-order rate constant of dissociation. A high value points to a short-lived complex.

This is an account of results in paper PMC8960874.

The target in the assay is Clone 16 (Clone 6-KiH-Clone 2) bispecific antibody (mouse | human) [IgG part: P01857]. The assay can be described thus: SPR. Conditions: domain or fragment.

“SARS-CoV-2 spike receptor binding domain (RBD) protein with a C-terminal hexahistidine tag (from UniProt P0DTC2 319-541)” gave a Kd of 2.95 nM and a koff of 0.00461 s⁻¹.
